Here are results for 5 molecules from patent US20060253917A1 (published 2006).

Sequences and labels used below:
B2: OsMADS6 aa 50-200 (other)
chain: SRGKLYEFGSAGITKTLERYQHCCYNAQDSNNALSETQSWYHEMSKLKAKFEALQRTQRHLLGEDLGPLSVKELQQLEKQLECALSQARQRKTQLMMEQVEELRRKERQLGEINRQLKHKLEVEGSTSNYRAMQQASWAQGAVVENGAAYV
notes: bait, Gal4 DBD fusion; also called PN20233

The target of the test “OsMADS6 aa 50-200” is B2. The experiment in a line: Y2H; input trait library. The gist of the method:
(§1)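 Myriad Genetics Inc. (Salt Lake City, Utah) supplied the automated, high-throughput yeast two-hybrid assay used to detect protein-protein interactions. A bait clone encoding a defined amino-acid fragment of a rice protein was screened against a rice prey library, either the input trait or the output trait library. To identify the interacting proteins, prey clones were retrieved and their encoding sequences were compared against databases by BLAST.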

In the next test the target is T1, OsMADS8 aa 79-248 (Oryza sativa, UniProt Q9SAR1 79-248).
T1 construct: prey, AD fusion; also called PN20778
T1 sequence: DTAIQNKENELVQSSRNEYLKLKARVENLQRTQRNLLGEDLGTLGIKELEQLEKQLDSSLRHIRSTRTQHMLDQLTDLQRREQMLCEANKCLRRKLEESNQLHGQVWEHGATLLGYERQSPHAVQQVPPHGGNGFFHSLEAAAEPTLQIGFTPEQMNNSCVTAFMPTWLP
The experiment in a line: Y2H; output trait library. In short, it runs like this:
as §1

Another test has as its target T2, OsMADS45 aa 83-234 (Oryza sativa, UniProt P0C5B0 83-234).
T2 construct: prey, AD fusion; also called PN20231
T2 sequence: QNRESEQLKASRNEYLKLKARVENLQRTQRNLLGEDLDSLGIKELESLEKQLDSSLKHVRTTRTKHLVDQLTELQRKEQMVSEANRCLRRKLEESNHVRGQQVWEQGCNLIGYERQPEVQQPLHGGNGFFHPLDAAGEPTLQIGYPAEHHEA
The experiment in a line: Y2H; output trait library. The gist of the method:
as §1

Another test concerns the target T3, OsMADS8 aa 75-238 (Oryza sativa, UniProt Q9SAR1 75-238).
T3 construct: prey, AD fusion; also called PN20778
T3 sequence: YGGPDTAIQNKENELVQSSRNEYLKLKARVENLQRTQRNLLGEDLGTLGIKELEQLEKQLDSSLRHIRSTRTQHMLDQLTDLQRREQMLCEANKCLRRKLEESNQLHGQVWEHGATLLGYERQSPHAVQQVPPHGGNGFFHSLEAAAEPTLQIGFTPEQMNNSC
The experiment in a line: Y2H; output trait library. In short, it runs like this: as §1

The target of another test is T4, OsRAP1B aa 1-179 (Oryza sativa, UniProt Q10CQ1 1-179).
T4 construct: prey, AD fusion; also called PN20232
T4 sequence: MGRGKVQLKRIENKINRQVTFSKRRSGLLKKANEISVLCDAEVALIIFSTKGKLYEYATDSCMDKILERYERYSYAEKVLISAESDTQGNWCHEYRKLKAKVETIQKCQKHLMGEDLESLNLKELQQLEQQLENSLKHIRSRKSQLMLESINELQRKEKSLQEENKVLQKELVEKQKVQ
The experiment in a line: Y2H; output trait library. In short, it runs like this:
as §1

For the next test, the target named is T5, OsMADS1 aa 70-257 (Oryza sativa, UniProt A2XDY1 70-257).
T5 construct: prey, AD fusion; also called PN19788
T5 sequence: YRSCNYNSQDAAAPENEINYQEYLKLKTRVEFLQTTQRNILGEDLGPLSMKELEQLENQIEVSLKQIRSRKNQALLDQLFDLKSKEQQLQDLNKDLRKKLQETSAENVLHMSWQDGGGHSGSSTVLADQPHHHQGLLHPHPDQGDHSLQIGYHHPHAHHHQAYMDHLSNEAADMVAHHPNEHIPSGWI
The experiment in a line: Y2H; output trait library. In short, it runs like this:
as §1

The next test deals with T6, OsMADS45 aa 56-249 (Oryza sativa, UniProt P0C5B0 56-249).
T6 construct: prey, AD fusion; also called PN20231
T6 sequence: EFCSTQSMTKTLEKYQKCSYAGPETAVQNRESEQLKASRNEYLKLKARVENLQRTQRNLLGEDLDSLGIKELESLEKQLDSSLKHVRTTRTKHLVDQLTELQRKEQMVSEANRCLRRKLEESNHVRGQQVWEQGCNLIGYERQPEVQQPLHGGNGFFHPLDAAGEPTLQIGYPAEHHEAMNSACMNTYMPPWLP
The experiment in a line: Y2H; output trait library. In short, it runs like this: as §1

A further test addresses T7, OsMADS45 aa 61-248 (Oryza sativa, UniProt P0C5B0 61-248).
T7 construct: prey, AD fusion; also called PN20231
T7 sequence: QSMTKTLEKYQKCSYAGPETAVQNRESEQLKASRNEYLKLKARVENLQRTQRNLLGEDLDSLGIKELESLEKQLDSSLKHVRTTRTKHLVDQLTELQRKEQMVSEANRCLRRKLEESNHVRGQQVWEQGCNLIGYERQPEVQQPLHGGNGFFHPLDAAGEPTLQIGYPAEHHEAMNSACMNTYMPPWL
The experiment in a line: Y2H; output trait library. In short, it runs like this: as §1

A further test has as its target T8, OsMADS45 aa 50-198 (Oryza sativa, UniProt P0C5B0 50-198).
T8 construct: bait, Gal4 DBD fusion; also called PN20231; O. sativa MADS box protein MADS45
T8 sequence: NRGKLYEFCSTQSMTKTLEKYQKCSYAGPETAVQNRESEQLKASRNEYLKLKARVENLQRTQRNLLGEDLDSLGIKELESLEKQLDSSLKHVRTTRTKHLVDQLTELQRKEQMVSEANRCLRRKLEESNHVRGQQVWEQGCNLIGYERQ
The experiment in a line: Y2H; input trait library. In short, it runs like this:
as §1

B1: OsRAP1B aa 1-188 (other)
chain: MGRGKVQLKRIENKINRQVTFSKRRSGLLKKANEISVLCDAEVALIIFSTKGKLYEYATDSCMDKILERYERYSYAEKVLISAESDTQGNWCHEYRKLKAKVETIQKCQKHLMGEDLESLNLKELQQLEQQLENSLKHIRSRKSQLMLESINELQRKEKSLQEENKVLQKELVEKQKVQKQQLQWDQT
notes: prey, AD fusion; also called PN20232
With B1, the binding result with OsMADS6 aa 50-200 is on record as “binds”.

As for B2, the binding result with OsMADS8 aa 79-248, with OsMADS45 aa 83-234, with OsMADS8 aa 75-238, with OsRAP1B aa 1-179 and with OsMADS1 aa 70-257 was “binds” throughout.

B3: OsFDRMADS8 aa 60-160 (other)
chain: APSLQKTIDRYKAYTKDHVNNKTIQQDIQQVKDDTLGLAKKLEALDESRRKILGENLEGCSIEELRGLEMKLEKSLHNIRLKKTELLERQIAKLKEKERTL
notes: bait, Gal4 DBD fusion; also called PN20698
On to B3, for which the binding result with OsMADS45 aa 56-249 is “binds”.

B4: OsRAP1B aa 30-180 (other)
chain: KKANEISVLCDAEVALIIFSTKGKLYEYATDSCMDKILERYERYSYAEKVLISAESDTQGNWCHEYRKLKAKVETIQKCQKHLMGEDLESLNLKELQQLEQQLENSLKHIRSRKSQLMLESINELQRKEKSLQEENKVLQKELVEKQKVQK
notes: bait, Gal4 DBD fusion; also called PN20232
As for B4, the binding result with OsMADS45 aa 61-248 is reported as “binds”.

B5: OsPN23495 aa 12-198 (other)
chain: PPAAAEDGRVTSHVDPFLVEALDNPRHRLMVLRMAMDIQKFMQNPQLHEFEFQHFPTSYLRCAAHRVAQHYGLETTVADSLVDGSVSKIVAKKTSESKLPVIALSEVPSKQARNEHEAAEKLKFVICPRPKAFQNGAGDAGAKNNAARTVEERIEEYNKARARIFNGSISDIEGTSDLGALSVARDE
notes: prey, AD fusion
As to B5, the binding result with OsMADS45 aa 50-198 is “binds”.
